According to paper PMC6382169, “Molecular features of steroid-binding antidins and their use for assaying serum progesterone” (PLoS ONE, 2019):
Changes are numbered by the printed parent chain. In names and notes the source's numbering stands. Like-named read-outs stand apart in the source and are kept apart here.

What was measured:
Avd = target: Avd; design: method as in PMID 17052607; conditions: read-out: Kd of Avd-HABA complex; cited from earlier work
[1] = target: the molecule itself; test: SEC; Superdex200 Increase 5/150GL, 50 mM sodium phosphate, 650 mM NaCl, pH 7, 0.1 ml/min, 20°C; molecular weight from a standard curve of elution volumes of markers
[2] = target: the molecule itself; test: crystal structure; co-crystallised with progesterone, sitting drop vapour diffusion, 21°C; 2.80 Å; two monomers in the asymmetric unit, tetrameric biological unit
[3] = design: method as in PMID 26550684; conditions: fluorometry-based assay, non-conjugated ligand, earlier study; read-out: Kd for progesterone; cited from earlier work
[4] = Fluorometric assay: quenching of intrinsic protein fluorescence by unconjugated ligand; type: binding; conditions: 100 nM protein, pH 7, 25°C, read-out: Kd for progesterone
Method: The binding affinity of the unconjugated small molecules to antidins was determined utilizing the intrinsic fluorescence originating from the aromatic amino acid residues (mainly tryptophan and tyrosine) of Avd and the fluorescence quenching caused by ligand binding. In brief, 100 nM protein samples in 50 mM NaH2PO4/Na2HPO4, 650 mM NaCl, pH 7 were excited at 280 nm, and emission was collected at 350 nm using QuantaMaster Spectrofluorometer (Photon Technology International, Inc.) with 2 nm slits. The assay was performed in a quartz cuvette with stirring at 25°C. The ligand was added to the protein sample in small aliquots (6–50 000 nM) and the fluorescence intensity was monitored after a short incubation. The dissociation constant (Kd) was determined from the resulting quenching curve using GraphPad Prism (GraphPad Software, Inc.). The data were fitted to a quadratic equation [72] for tight binding interactions, which takes ligand depletion and nonspecific binding into account (described in detail in [38]) (Fig 6).

[5] = Differential scanning calorimetry with biotin; type: binding; conditions: DSC, ligand three times the protein concentration
Method: (§1) The thermal stability of the antidin sbAvd-7 in the presence and absence of ligands was analyzed using an automated VP-Capillary DSC System (Malvern, Microcal Inc.) essentially as described in [73]. Protein samples in the sodium phosphate buffer (50 mM, pH 7) containing 650 mM NaCl were degassed prior to the measurement. The protein concentration in the cell was 6.4 μM, and the molar concentration of the ligands (D-biotin (Biochemica, Fluka) and progesterone (Steraloids Inc., USA)) were three times higher (Fig 6).

[6] = Differential scanning calorimetry, no ligand; type: physicochemical; conditions: DSC, absence of ligand, 6.4 μM protein, pH 7
Method: as §1

[7] = Differential scanning calorimetry with progesterone; type: binding; conditions: DSC, ligand three times the protein concentration
Method: as §1

Molecule: O=C(O)c1ccccc1N=Nc1ccc(O)cc1 [HABA, 2-(4’-hydroxybenzene)azobenzoic acid]
- Kd (Avd): ~6000 nM

B1: sbAvd-7 antidin (engineered chicken avidin) (designed binder)
chain: ARKCSLTGKWTNRMNHNMTIGAVNSRGEFTGTYIASLNATSNEIKESPLHGTQNTINKRTQPTFGFTVNWKFSESTAVFTGQCFIDRNGKEVLKTMWLLRSSVNDIGDDWKATRVGINIFTRLRTQKE
notes: selected from the phage display library AvLib-4 (template sbAvd-1); Subcloned with the OmpA signal peptide and a C-terminal 6xHis-tag into pET101/D; source: E. coli BL21-AI or OverExpress C43(DE3), purified (Ni-NTA)
- stoichiometry N [1]: 4

B2: sbAvd-2 (I117Y) antidin (engineered chicken avidin) (designed binder)
chain: B1 chain with S36T, L37V, A77T, I117Y
notes: position 37 stays V; Crystallised with progesterone; also called sbAvd-2 (I117Y) mutant
- stoichiometry N [2]: 4

B3: sbAvd-5: antidin with RMNH at 13-16 and VPHP at positions 35-38; from AvLib-3 (protein, UniProt P02701 25-152, looked up, variant D13R L14M G15N S16H T35V A36P V37H T38P)
Avidin: B1 chain with A35V, S36P, L37H, N38P, A77T
- Kd [3]: 108 nM

B4: sbAvd-6: antidin with RMNH at 13-16 and VSSN at positions 35-38; from AvLib-3 (protein, UniProt P02701 25-152, looked up, variant D13R L14M G15N S16H T35V A36S V37S T38N)
Avidin: B1 chain with A35V, L37S, A77T
- Kd [3]: 117 nM

B5: hbAvd-4: antidin S16A, Y33F, T40P, F72A, S73Y, S75Y, N118A; from AvLib-5, hydrocortisone panning (protein, UniProt P02701 25-152, looked up, variant S16A Y33F T40P F72A S73Y S75Y N118A)
Avidin: ARKCSLTGKWTNDLGANMTIGAVNSRGEFTGTFITAVTAPSNEIKESPLHGTQNTINKRTQPTFGFTVNWKAYEYTTVFTGQCFIDRNGKEVLKTMWLLRSSVNDIGDDWKATRVGIAIFTRLRTQKE
- Kd [4]: 39 nM

B6: sbAvd-8: antidin with RMNH at 13-16, Y33F, A36Y, V37S, T38Y and T77A; from AvLib-4 (protein, UniProt P02701 25-152, looked up, variant D13R L14M G15N S16H Y33F A36Y V37S T38Y T77A)
Avidin: B1 chain with Y33F, A35T, S36Y, L37S, N38Y
- Kd [4]: 11 nM

B7: sbAvd-9: antidin with RMNH at 13-16, YYLP at 35-38 and T77A; from AvLib-4 (protein, UniProt P02701 25-152, looked up, variant D13R L14M G15N S16H T35Y A36Y V37L T38P T77A)
Avidin: B1 chain with A35Y, S36Y, N38P
- Kd [4]: 13 nM

B8: sbAvd-4: antidin with RMNH at 13-16 and PYLS at positions 35-38; from AvLib-3 (protein, UniProt P02701 25-152, looked up, variant D13R L14M G15N S16H T35P A36Y V37L T38S)
Avidin: B1 chain with A35P, S36Y, N38S, A77T
- Kd [3]: 135 nM

B9: sbAvd-7: antidin with RMNH at 13-16, ASLN at 35-38 and T77A; from AvLib-4, progesterone panning (protein)
chain: B1 chain
modifications: left off: 6xHis, C-terminal, state not stated
notes: antidin with RMNH at 13-16, ASLN at 35-38 and T77A; from AvLib-4, progesterone panning
- ΔTm with biotin [5]: 0.27 °C
- Tm [6]: 85.84 °C
- ΔTm with progesterone [7]: 10.23 °C

B10: sbAvd-2: antidin with RMNH at 13-16 and ATVN at positions 35-38; from AvLib-3 (protein, UniProt P02701 25-152, looked up, variant D13R L14M G15N S16H T35A A36T T38N)
Avidin: B1 chain with S36T, L37V, A77T
- Kd [3]: 111 nM

B11: sbAvd-2 (I117Y): sbAvd-2 with stabilizing mutation I117Y; co-crystallized with progesterone, PDB:5LUR (protein)
chain: B1 chain with S36T, L37V, A77T, I117Y
- Kd [3]: 180 nM
